{
  "source": "patent US20080039616A1",
  "molecular_target": "FLAG® HA BAP fusion protein [phosphatase: P00634]",
  "test": "immunoprecipitation of purified FLAG HA BAP in 3 extraction buffers, blot with anti-HA-peroxidase",
  "data": [
    {"substance": "ANTI-FLAG® affinity resin (antibody)", "values": [
      {"measurement": "protein recovery (% of input protein) (% of input protein)", "result": "> 70"}
    ]}
  ]
}
